A short description of the series: Thermal stability (Tm) by Differential Scanning Fluorimetry (NanoDSF). In kind it is physicochemical. The following applies: 0.5 mg/mL in Phosphate Buffered Saline, pH 7.4. Here is the method: Thermal stability was determined by Differential Scanning Fluorimetry (NanoDSF) using an automated Prometheus instrument. NanoDSF was used to measure Tm of molecules at a concentration of 0.5 mg/mL in Phosphate Buffered Saline, pH 7.4. Measurements were made by loading samples into 24 well capillary from a 384 well sample plate. Duplicate runs were performed for each sample. The thermal scans span from 20° C. to 95° C. at a rate of 1.0° C./minute. Intrinsic tryptophan and tyrosine fluorescence were monitored at the emission wavelengths of 330 nm and 350 nm, and the F350/F330 nm ratio were plotted against temperature to generate unfolding curves.

Where only a bound is given, the exact number is not on record here.

B1: KL2B53 (Fab) (antibody, V domains shown)
VH: EVQLVESGGGVVQPGRSLRLSCVASGFTFSSYDIHWVRQAPGKGLEWVAIISYDGSKKDYTDSVKGRFTISRDNSKNTLYLQMDSLRVEDSAVYSCARESGWSHYYYYGMDVWGQGTMVTVSS
VL: DIVMTQSPSSLSASVGDRVTITCRASQDISNYLAWYQQKPGKVPKFLIYAASTLHSGVPSRFSGSGSGTDFTLTISSLQPEDVATYYCQKYNSAPYTFGQGTRLEIK
In the case of B1, the “Tm (° C.)” value is greater than 70 °C.

B2: KL2B242 (Fab) (antibody, V domains shown)
VH: QVQLQESGPGLVKPSETLSLTCTVSGGSISSYYWSWLRQPAGSGLEWIGRLYVSGFTNYNPSLKSRVTLSLDPSRNQLSLKLSSVTAADTAVYYCAGDSGNYWGWFDPWGQGTLVTVSS
VL: SYELTQPPSVSVSPGETASITCSGDQLGENYACWYQQKPGQSPVLVIYQDSKRPSGIPERFSGSNSGNTATLTISGTQALDEADYYCQAWDNSIVVFGGGTKLTVL
As for B2, the “Tm (° C.)” value was greater than 70 °C.

B3: KL2B467 (Fab) (antibody, V domains shown)
VH: QVQLVESGGGVVQPGRSLRLSCAASGFTFSYYGMHWVRQAPGKGLEWVAFISYDGSNKYYADSVKGRFTISRDNSKNTLYLQMNSLRAEDTAVYYCAHLPYSGSYWAFDYWGQGTQVTVSS
VL: QSVLTQPPSVSVAPGQTASITCGGDNIGSKSVHWYQQKPGQAPVLVVYDNSDRPSGIPERFSGSNSGTTATLTISRVEAGDEADYYCQVWDSSSDHPVVFGGGTKVTV
As to B3, the “Tm (° C.)” value was greater than 70 °C.
